Common to all, as to conditions: both partners purified
Assay [1] addresses GABARAP-L1 (recombinant, BLI) (human, UniProt Q9H0R8 1-117). Kind of assay: BLI; biotinylated LIR peptide (50 μg/ml) immobilised on streptavidin biosensor, ATG8 in solution; Octet Red 96; 25 mM Tris pH 7.5, 150 mM NaCl, 0.5 mM TCEP, 0.1% Tween-20, 1 mg/ml BSA; 25 °C; Kd from response against concentration. On the technique in general: Biolayer interferometry detects binding as a change in optical thickness at a sensor tip.

The target in assay [2] is T1, GABARAP (recombinant, BLI) (human, UniProt O95166 1-117).
T1 construct: full-length human GABARAP; also called WT GABARAP; source: recombinant; bacterial expression plasmid pAL
The description is as above.

Assay [3] deals with LC3B (recombinant, BLI) (human, UniProt Q9GZQ8 1-120). Described as above.
In assay [4] the target is T2, GABARAP-L2 (recombinant, BLI) (human, UniProt P60520 1-117).
T2 construct: human GABARAP-L2; source: recombinant; bacterial expression plasmid pAL
T2 sequence (P60520 whole entry): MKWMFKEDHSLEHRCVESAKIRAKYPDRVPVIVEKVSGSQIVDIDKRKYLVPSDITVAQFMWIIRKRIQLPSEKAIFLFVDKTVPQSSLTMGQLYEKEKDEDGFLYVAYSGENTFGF
Described as above.

The target of assay [5] is T3, LC3C (human, UniProt Q9BXW4 1-126).
T3 construct: LC3C, human, full length; The plasmid has a 3C protease site after GST; source: recombinant, expressed in bacteria from the pAL plasmid (modified pGEX-6P2)
Kind of assay: BLI; biotinylated LIR peptide immobilised on streptavidin biosensors (Octet Red 96), ATG8 protein in solution; 25 mM Tris pH 7.5, 150 mM NaCl, 0.5 mM TCEP, 0.1% Tween-20, 1 mg/ml BSA, 25 °C; Kd from response against concentration, Y=Rmax*X/(Kd+X).

In assay [6] the target is T4, LC3A (human, UniProt Q9H492 1-121).
T4 construct: LC3A, human, full length; The plasmid has a 3C protease site after GST; source: recombinant, expressed in bacteria from the pAL plasmid (modified pGEX-6P2)
The description is as above.

Assay [7] has as its target T5, GABARAP (human, UniProt O95166 1-117).
T5 construct: GABARAP, human, full length; The plasmid has a 3C protease site after GST; also called GABARAP WT; source: recombinant, expressed in bacteria from the pAL plasmid (modified pGEX-6P2)
The assay is described as above.

Ends that are not written are not given here.

GABARAP-L1 (recombinant, BLI), sequence (Q9H0R8 whole entry, looked up): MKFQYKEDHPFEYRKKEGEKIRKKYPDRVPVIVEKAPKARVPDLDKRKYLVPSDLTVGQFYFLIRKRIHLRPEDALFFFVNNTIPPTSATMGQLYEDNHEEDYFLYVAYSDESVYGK

As a reminder, the Kd is the constant that tells how readily two partners part at equilibrium. On to PDSIDAHTFDFETIPHPNIEQTIH (also: biotin, position not given here) [FIP200 LIR peptide (biotinylated, BLI)], for which the Kd in assay [1] amounted to 7 µM; in assay [2] it was 5.6 µM.

In the case of GGSSGNTHDDFVMIDFKPAFSKDD (also: biotin, position not given here) [ATG13 LIR peptide (biotinylated, BLI)], the figures for the Kd in assay [1] and in assay [2] were 0.53 µM and 0.59 µM, respectively.

Take SDNCSGGDDDWTHLSSKEVDPSTG (also: biotin, position not given here) [p62 LIR peptide (biotinylated, BLI)]: the Kd in assay [3] is 4.5 µM; in assay [4] it was 5.2 µM.

With DTDDFVMVPAQFPGDLV (peptide, UniProt O75385 353-369, looked up, not fully specified (N-terminus); also: biotinylated, position not given here, source: synthetic peptide) [ULK1 (aa 353-369) LIR peptide], the Kd came out at 1.9 µM in assay [5], 7.71 µM in assay [6] and 0.116 µM in assay [7].

These data come from paper PMC6499816 (Nature Communications, 2019).
